Measurements: patent publication US20250154231A1
Like-named read-outs stand apart in the source and are kept apart here.

How the values were obtained:
Test in all cases: cell-based or functional assay
[1] = molecular target: SARS-CoV-2 spike (S) protein, Omicron BA.4.6 (SARS-CoV-2) (UniProt P0DTC2)
[2] = molecular target: SARS-CoV-2 spike (S) protein, Omicron BA.3 (SARS-CoV-2) (UniProt P0DTC2)
[3] = molecular target: SARS-CoV-2 Omicron BA.1.1 spike (S) protein (SARS-CoV-2) (UniProt P0DTC2)
[4] = molecular target: SARS-CoV-2 spike (S) protein, Victoria strain (SARS-CoV-2) (UniProt P0DTC2)
[5] = molecular target: SARS-CoV-2 spike (S) protein, Omicron BA.2 (SARS-CoV-2) (UniProt P0DTC2)
[6] = molecular target: SARS-CoV-2 Alpha spike (S) protein (SARS-CoV-2) (UniProt P0DTC2)
[7] = molecular target: SARS-CoV-2 Beta spike (S) protein (SARS-CoV-2) (UniProt P0DTC2)
[8] = molecular target: SARS-CoV-2 spike (S) protein, Omicron BA.1.1 (SARS-CoV-2) (UniProt P0DTC2)
[9] = molecular target: SARS-CoV-2 Omicron BA.1 spike (S) protein of the live isolate (SARS-CoV-2) (UniProt P0DTC2)
[10] = molecular target: SARS-CoV-2 spike (S) protein, Omicron BA.4/5 (SARS-CoV-2) (UniProt P0DTC2)
[11] = molecular target: SARS-CoV-2 Victoria spike (S) protein (SARS-CoV-2) (UniProt P0DTC2)
[12] = molecular target: SARS-CoV-2 Omicron BA.2 spike (S) protein (SARS-CoV-2) (UniProt P0DTC2)
[13] = molecular target: SARS-CoV-2 spike (S) protein, Omicron BA.1 (SARS-CoV-2) (UniProt P0DTC2)
[14] = molecular target: SARS-CoV-2 Delta spike (S) protein (SARS-CoV-2) (UniProt P0DTC2)
[15] = molecular target: SARS-CoV-2 Gamma spike (S) protein (SARS-CoV-2) (UniProt P0DTC2)
[16] = molecular target: SARS-CoV-2 spike (S) protein, Omicron BA.2.75 (SARS-CoV-2) (UniProt P0DTC2)
[17] = molecular target: SARS-CoV-2 spike (S) protein, Omicron BA.4.6 (SARS-CoV-2) (UniProt P0DTC2); remark: listed apart in the source
[18] = molecular target: SARS-CoV-2 spike (S) protein, Victoria strain (SARS-CoV-2) (UniProt P0DTC2); remark: listed apart in the source
[19] = molecular target: SARS-CoV-2 spike (S) protein, Omicron BA.2.75.2 (SARS-CoV-2) (UniProt P0DTC2)
[20] = molecular target: SARS-CoV-2 spike (S) protein, Omicron BA.2 (SARS-CoV-2) (UniProt P0DTC2); remark: listed apart in the source
[21] = molecular target: SARS-CoV-2 spike (S) protein, Omicron BA.4/5 (SARS-CoV-2) (UniProt P0DTC2); remark: listed apart in the source
[22] = molecular target: SARS-CoV-2 spike (S) protein, Omicron BA.2.75 (SARS-CoV-2) (UniProt P0DTC2); remark: listed apart in the source
[23] = molecular target: SARS-CoV-2 spike (S) protein, Omicron BA.2.3.20 (SARS-CoV-2) (UniProt P0DTC2)
[24] = molecular target: SARS-CoV-2 spike (S) protein, Omicron BJ.1 (SARS-CoV-2) (UniProt P0DTC2)
[25] = molecular target: SARS-CoV-2 Omicron BA.2 spike (S) protein, pseudovirus construct (SARS-CoV-2) (UniProt P0DTC2)
[26] = molecular target: SARS-CoV-2 Omicron BA.1 spike (S) protein, pseudovirus construct (SARS-CoV-2) (UniProt P0DTC2)
[27] = molecular target: SARS-CoV-2 Omicron BA.3 spike (S) protein, pseudovirus construct (SARS-CoV-2) (UniProt P0DTC2)
[28] = molecular target: SARS-CoV-2 Omicron BA.1.1 spike (S) protein, pseudovirus construct (SARS-CoV-2) (UniProt P0DTC2)

Sequence of Known Antibody D (AZD8895) (VH): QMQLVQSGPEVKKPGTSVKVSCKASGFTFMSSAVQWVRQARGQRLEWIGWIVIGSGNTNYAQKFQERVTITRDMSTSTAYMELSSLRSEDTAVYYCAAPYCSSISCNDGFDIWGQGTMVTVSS
Sequence of Known Antibody D (AZD8895) (VL): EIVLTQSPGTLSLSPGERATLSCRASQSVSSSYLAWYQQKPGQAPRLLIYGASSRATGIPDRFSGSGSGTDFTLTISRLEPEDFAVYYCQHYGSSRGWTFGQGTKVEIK

ADG10 (antibody)
IC50, pseudoviral neutralization [1]: > 10 µg/mL | IC50, pseudoviral neutralization [2]: > 10 µg/mL | pseudovirus neutralisation IC50 [2]: > 10 µg/mL | IC50, authentic virus neutralization [3]: > 10 µg/mL | IC50, pseudoviral neutralization [4]: 0.007 µg/mL | pseudovirus neutralisation IC50 [4]: 0.007 µg/mL | IC50, pseudoviral neutralization [5]: > 10 µg/mL | pseudovirus neutralisation IC50 [5]: > 10 µg/mL | IC50, authentic virus neutralization [6]: 0.01 µg/mL | IC50, authentic virus neutralization [7]: 0.011 µg/mL | IC50, pseudoviral neutralization [8]: > 10 µg/mL | pseudovirus neutralisation IC50 [8]: > 10 µg/mL | IC50, authentic virus neutralization [9]: > 10 µg/mL | IC50, pseudoviral neutralization [10]: > 10 µg/mL | pseudovirus neutralisation IC50 [10]: > 10 µg/mL | IC50, authentic virus neutralization [11]: 0.006 µg/mL | IC50, authentic virus neutralization [12]: > 10 µg/mL | IC50, pseudoviral neutralization [13]: > 10 µg/mL | pseudovirus neutralisation IC50 [13]: > 10 µg/mL | IC50, authentic virus neutralization [14]: 0.026 µg/mL | IC50, authentic virus neutralization [15]: 0.003 µg/mL | pseudovirus neutralisation IC50 [16]: > 10 µg/mL

ADG30 (antibody)
IC50, pseudoviral neutralization [1]: > 10 µg/mL | IC50, pseudoviral neutralization [2]: > 10 µg/mL | pseudovirus neutralisation IC50 [2]: > 10 µg/mL | IC50, authentic virus neutralization [3]: > 10 µg/mL | IC50, pseudoviral neutralization [4]: 0.014 µg/mL | pseudovirus neutralisation IC50 [4]: 0.014 µg/mL | IC50, pseudoviral neutralization [5]: > 10 µg/mL | pseudovirus neutralisation IC50 [5]: > 10 µg/mL | IC50, authentic virus neutralization [6]: 0.016 µg/mL | IC50, authentic virus neutralization [7]: 0.029 µg/mL | IC50, pseudoviral neutralization [8]: > 10 µg/mL | pseudovirus neutralisation IC50 [8]: > 10 µg/mL | IC50, authentic virus neutralization [9]: > 10 µg/mL | IC50, pseudoviral neutralization [10]: > 10 µg/mL | pseudovirus neutralisation IC50 [10]: > 10 µg/mL | IC50, authentic virus neutralization [11]: 0.007 µg/mL | IC50, authentic virus neutralization [12]: > 10 µg/mL | IC50, pseudoviral neutralization [13]: > 10 µg/mL | pseudovirus neutralisation IC50 [13]: > 10 µg/mL | IC50, authentic virus neutralization [14]: 0.033 µg/mL | IC50, authentic virus neutralization [15]: 0.002 µg/mL | pseudovirus neutralisation IC50 [16]: > 10 µg/mL

AZD7442
IC50, pseudoviral neutralization [1]: > 10 µg/mL | IC50, pseudoviral neutralization [2]: 0.065 µg/mL | pseudovirus neutralisation IC50 [2]: 0.065 µg/mL | IC50, pseudoviral neutralization [4]: 0.001 µg/mL | pseudovirus neutralisation IC50 [4]: 0.001 µg/mL | IC50, pseudoviral neutralization [5]: 0.008 µg/mL | pseudovirus neutralisation IC50 [5]: 0.008 µg/mL | IC50, pseudoviral neutralization [8]: 0.806 µg/mL | pseudovirus neutralisation IC50 [8]: 0.806 µg/mL | IC50, pseudoviral neutralization [10]: 0.065 µg/mL | pseudovirus neutralisation IC50 [10]: 0.065 µg/mL | IC50, pseudoviral neutralization [13]: 0.232 µg/mL | pseudovirus neutralisation IC50 [13]: 0.232 µg/mL | pseudovirus neutralisation IC50 [16]: 0.017 µg/mL

AZD7442 (a combination of AZD8895 and AZD1061)
IC50, pseudoviral neutralization [17]: > 10 µg/mL | IC50, pseudoviral neutralization [18]: 0.001 µg/mL | IC50, pseudoviral neutralization [19]: > 10 µg/mL | IC50, pseudoviral neutralization [20]: 0.008 µg/mL | IC50, pseudoviral neutralization [21]: 0.065 µg/mL | IC50, pseudoviral neutralization [22]: 0.017 µg/mL | IC50, pseudoviral neutralization [23]: 0.025 µg/mL | IC50, pseudoviral neutralization [24]: 2.73 µg/mL

AZD7442 (antibody)
IC50, authentic virus neutralization [3]: 3.82 µg/mL | IC50, authentic virus neutralization [6]: 0.007 µg/mL | IC50, authentic virus neutralization [7]: 0.012 µg/mL | IC50, authentic virus neutralization [9]: 0.273 µg/mL | IC50, authentic virus neutralization [11]: 0.009 µg/mL | IC50, authentic virus neutralization [12]: 0.052 µg/mL | IC50, authentic virus neutralization [14]: 0.005 µg/mL | IC50, authentic virus neutralization [15]: 0.006 µg/mL

Known Antibody A (REGN 10987)
IC50 (ug/ml), pseudovirus [25]: 0.616 µg/mL | IC50 (ug/ml), pseudovirus [26]: > 10 µg/mL | IC50 (ug/ml), pseudovirus [27]: > 10 µg/mL | IC50 (ug/ml), pseudovirus [28]: > 10 µg/mL | IC50 (ug/ml), pseudovirus [11]: 0.002 µg/mL

Known Antibody B (REGN 10933)
IC50 (ug/ml), pseudovirus [25]: > 10 µg/mL | IC50 (ug/ml), pseudovirus [26]: > 10 µg/mL | IC50 (ug/ml), pseudovirus [27]: > 10 µg/mL | IC50 (ug/ml), pseudovirus [28]: > 10 µg/mL | IC50 (ug/ml), pseudovirus [11]: 0.001 µg/mL

Known Antibody C (AZD1061)
IC50 (ug/ml), pseudovirus [25]: 0.008 µg/mL | IC50 (ug/ml), pseudovirus [26]: 0.308 µg/mL | IC50 (ug/ml), pseudovirus [27]: 0.019 µg/mL | IC50 (ug/ml), pseudovirus [28]: > 10 µg/mL | IC50 (ug/ml), pseudovirus [11]: 0.002 µg/mL

Known Antibody D (AZD8895)
IC50 (ug/ml), pseudovirus [25]: 1.33 µg/mL | IC50 (ug/ml), pseudovirus [26]: 0.246 µg/mL | IC50 (ug/ml), pseudovirus [27]: > 10 µg/mL | IC50 (ug/ml), pseudovirus [28]: 0.1 µg/mL | IC50 (ug/ml), pseudovirus [11]: 0.001 µg/mL
